Test results taken from PMC4880913.

Assays:
[1] = target: fluorescein-labeled BclxLΔTM (human) (UniProt Q07817); test: fluorescence polarisation; 100 nM N-terminally fluorescein-labeled BclxLΔTM titrated with increasing amounts of p63-DBD; 10 mM sodium phosphate pH 7.2, 1 mM DTT; one-site or cooperative binding model; triplicate
p53 DBD (Homo sapiens) = p53 DBD (Homo sapiens) (UniProt P04637); conditions: cited from earlier work
p63-DBD = target: T1, p63-DBD (UniProt Q9H3D4); test: fluorescence polarization; conditions: FP: 100 nM 5'-fluorescein dsDNA, 10 mM sodium phosphate pH 7.2, 1 mM DTT, temperature not stated; NMR: 1 mM sodium phosphate pH 7.2, 100 mM NaCl, 5 mM DTT …
T1 sequence: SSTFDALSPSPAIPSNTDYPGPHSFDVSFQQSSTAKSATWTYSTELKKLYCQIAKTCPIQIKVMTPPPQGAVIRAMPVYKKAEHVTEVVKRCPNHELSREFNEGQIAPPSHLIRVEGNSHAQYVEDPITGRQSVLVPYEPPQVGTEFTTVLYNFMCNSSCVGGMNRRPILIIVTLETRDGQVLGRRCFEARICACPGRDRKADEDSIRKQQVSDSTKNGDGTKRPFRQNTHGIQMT

Sequence of p53 DBD (Homo sapiens) (P04637 94-312): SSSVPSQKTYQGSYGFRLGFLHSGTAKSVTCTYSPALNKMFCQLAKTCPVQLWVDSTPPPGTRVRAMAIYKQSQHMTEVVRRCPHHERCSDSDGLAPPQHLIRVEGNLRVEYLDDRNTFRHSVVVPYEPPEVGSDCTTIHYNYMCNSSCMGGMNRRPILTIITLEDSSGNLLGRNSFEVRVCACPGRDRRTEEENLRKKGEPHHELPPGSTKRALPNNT
Sequence of fluorescein-labeled BclxLΔTM (human) (Q07817 1-212, stated change not applied): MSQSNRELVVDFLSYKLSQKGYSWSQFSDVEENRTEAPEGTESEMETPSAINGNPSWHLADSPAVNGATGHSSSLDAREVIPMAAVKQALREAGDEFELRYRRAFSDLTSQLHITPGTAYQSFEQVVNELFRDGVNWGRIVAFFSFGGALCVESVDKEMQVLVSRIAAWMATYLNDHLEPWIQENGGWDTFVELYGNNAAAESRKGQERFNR
Sequence of BclxL (Q07817 whole entry): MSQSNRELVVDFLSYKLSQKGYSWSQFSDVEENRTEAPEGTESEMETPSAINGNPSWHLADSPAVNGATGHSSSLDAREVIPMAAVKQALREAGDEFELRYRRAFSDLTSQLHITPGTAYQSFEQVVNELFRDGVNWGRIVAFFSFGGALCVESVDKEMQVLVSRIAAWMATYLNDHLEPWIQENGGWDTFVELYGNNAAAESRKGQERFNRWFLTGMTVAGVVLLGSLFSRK

With “p63 DNA binding domain (from UniProt Q9H3D4 153-388) (domain or fragment)” the Kd [1] was 38 µM.
For BclxL (from UniProt Q07817), the Kd (p53 DBD (Homo sapiens)) is listed as 5.5 µM.
In the case of p21 response element, the binding signal (fold lower affinity than p53-DBD) (p63-DBD) is reported as 2.
Bax response element gave a binding signal (fold lower affinity than p53-DBD) (p63-DBD) of 2.
In the case of Jag-1 response element, the binding signal (fold lower affinity than p53-DBD) (p63-DBD) is reported as 2.
